Laboratory results as given in US8349320 (LA JOLLA INSTITUTE FOR ALLERGY AND IMMUNOLOGY, dated 2013).

Key:
[1] = biological target: T1, mouse BTLA expressed on cells (mouse, UniProt Q7TSA3 30-306); assay: flow cytometry, graded hHVEM-Fc on cells expressing mouse BTLA (FIG. 3A)
T1 construct: whole, on cells; the GFP part is not described further; also called mBTLA
T1 sequence (looked up): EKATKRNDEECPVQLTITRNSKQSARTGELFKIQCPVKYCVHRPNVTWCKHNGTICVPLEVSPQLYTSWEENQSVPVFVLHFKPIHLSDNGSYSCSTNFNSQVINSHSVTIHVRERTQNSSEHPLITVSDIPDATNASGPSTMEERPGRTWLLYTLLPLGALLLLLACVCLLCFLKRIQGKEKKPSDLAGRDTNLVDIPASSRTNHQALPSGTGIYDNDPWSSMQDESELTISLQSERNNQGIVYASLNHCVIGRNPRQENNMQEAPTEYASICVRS

[2] = biological target: T2, full length human LIGHT expressed on EL4 cells (human, UniProt O43557 1-240); assay: flow cytometry saturation binding, Fc fusion on EL4 cells expressing human LIGHT
T2 construct: whole, on cells; also called EL4-hLIGHT; hLIGHT-EL4 cells

[3] = biological target: T3, human BTLA expressed on cells (human, UniProt Q7Z6A9 31-289); assay: flow cytometry saturation binding, Fc fusion on cells expressing human BTLA (FIG. 3A)
T3 construct: whole, on cells; also called hBTLA

[4] = biological target: T3, human BTLA expressed on cells; assay: flow cytometry saturation binding, Fc fusion on cells expressing human BTLA (FIG. 3B)
[5] = biological target: T1, mouse BTLA expressed on cells; assay: flow cytometry saturation binding, Fc fusion on cells expressing mouse BTLA (FIG. 3B)

T2 sequence (O43557 whole entry, the tested form may be a part): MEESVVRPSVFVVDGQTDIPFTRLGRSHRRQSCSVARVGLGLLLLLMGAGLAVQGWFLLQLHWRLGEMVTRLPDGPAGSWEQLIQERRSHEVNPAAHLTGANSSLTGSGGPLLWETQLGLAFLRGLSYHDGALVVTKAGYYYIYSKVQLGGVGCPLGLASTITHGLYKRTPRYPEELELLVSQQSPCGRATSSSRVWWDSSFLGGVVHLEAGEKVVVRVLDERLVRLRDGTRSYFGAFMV

B1: human HVEM-Fc (Fc fusion, UniProt Q92956 39-202, looked up)
chain: LPSCKEDEYPVGSECCPKCSPGYRVKEACGELTGTVCEPCPPGTYIAHLNGLSKCLQCQMCDPAMGLRASRNCSRTENAVCGCSPGHFCIVQDGDHCAACRAYATSSPGQRVQKGGTESQDTLCQNCPPGTFSPNGTLEECQHQTKCSWLVTKAGAGTSSSHWV
modifications: in the FIG. 3H assay biotinylated with NHS-PEO4-Biotin, 2 biotin molecules per HVEM-Fc (sites not given)
notes: extracellular domain; Ecto domain of the TNFR fused to Fc of human IgG1; also called hHVEM-Fc; hHVEM:Fc; not shown: Fc region of human IgG1
binding result [1]: no binding | Kd [2]: 11 nM | Kd [3]: 112 nM

B2: mouse HVEM-Fc (Fc fusion, UniProt Q80WM9 39-206, looked up)
chain: QPSCRQEEFLVGDECCPMCNPGYHVKQVCSEHTGTVCAPCPPQTYTAHANGLSKCLPCGVCDPDMGLLTWQECSSWKDTVCRCIPGYFCENQDGSHCSTCLQHTTCPPGQRVEKRGTHDQDTVCADCLTGTFSLGGTQEECLPWTNCSAFQQEVRRGTNSTDTTCSSQ
notes: extracellular domain; Expressed in insect cells (baculovirus); also called mHVEM-Fc; mHVEM:Fc; not shown: Fc region of human IgG1
Kd [4]: 27 nM | Kd [5]: 24 nM
